B1: GST-CDC42 (amino acids 1-178) (domain or fragment)
chain: not shown
notes: CDC42, amino acids 1-178; loaded with GDP or GTPγS before the assay; source: E. coli BL21 (pGEX-4T3-CDC42), isolated, coupled to glutathione agarose beads
B2: GST-PAK[CRIB] (domain or fragment, UniProt Q13153 58-141, looked up)
chain: ILPGDKTNKKKEKERPEISLPSDFEHTIHVGFDAVTGEFTGMPEQWARLLQTSNITKSEQKKNPQAVLDVLEFYNSKKTSNSQK
notes: PAK1, CRIB domain, amino acids 58-141; source: E. coli BL21 (pGEX-2TK-PAK[CRIB]), isolated, coupled to glutathione agarose beads

Key:
Test in all cases: pull-down; in-vitro binding assay: GST fusion protein (1 μM) on glutathione agarose mixed with His-RIT1 (0.5 μM or a concentration series) loaded with GDP or GTPγS; 20 mM Tris-HCl, 100 mM NaCl, 0.1% Triton X-100, 1 mM DTT, 100 mM MgCl2; 30 min at room temperature; anti-His immunoblot
Settings in all cases: both partners purified
[1] = biological target: T1, His-RIT1^WT (amino acids 1-201) (human, UniProt Q92963-1 1-201)
T1 construct: RIT1, human; loaded with GDP or non-hydrolyzable GTPγS before the assay; also called His-tagged RIT1; recombinant His-tagged RIT1 wildtype; source: E. coli BL21 (pET151/D-TOPO-RIT1^WT), purified

[2] = biological target: T2, His-RIT1^A57G (amino acids 1-201) (human, UniProt Q92963-1 1-201, A57G)
T2 construct: RIT1, human; Noonan syndrome-associated substitution in switch I; loaded with GDP or non-hydrolyzable GTPγS before the assay; also called RIT1 mutant p.A57G (recombinant); source: E. coli BL21 (pET151/D-TOPO-RIT1^A57G), purified

[3] = biological target: T3, His-RIT1^F82L (amino acids 1-201) (human, UniProt Q92963-1 1-201, F82L)
T3 construct: RIT1, human; Noonan syndrome-associated substitution in switch II; loaded with GDP or non-hydrolyzable GTPγS before the assay; also called RIT1 mutant p.F82L (recombinant); source: E. coli BL21 (pET151/D-TOPO-RIT1^F82L), purified
T3 sequence (Q92963 1-201 F82L): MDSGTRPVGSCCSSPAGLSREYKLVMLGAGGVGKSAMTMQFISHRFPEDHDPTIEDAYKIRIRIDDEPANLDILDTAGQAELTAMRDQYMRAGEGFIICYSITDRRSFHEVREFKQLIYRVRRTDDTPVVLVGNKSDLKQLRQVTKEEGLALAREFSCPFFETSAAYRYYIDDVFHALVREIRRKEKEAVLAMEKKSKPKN

T1 sequence (Q92963 1-201): as the sequence (Q92963 1-201 F82L) above, with L82F counted along it
T2 sequence (Q92963 1-201 A57G): as the sequence (Q92963 1-201 F82L) above, with A57G, L82F counted along it

Binder | binding result [1] | binding result [2] | binding result [3]
B1 | binds | – | –
B2 | binds | binds | binds
